From patent publication US12318456B2, “Therapeutic nanoparticles containing argonaute for microRNA delivery and compositions and methods using same” (KOC UNIVERSITESI, priority 2018, dated 2025)

Experiments:
miR-376b = assay: Flag immunoprecipitation of AGO2 and its domains, miRNA level by Taqman QPCR; assay type: binding; settings: flag tagged proteins overexpressed in HEK293T cells, immunoprecipitated with flag beads
From the text: The miRNA is anchored in AGO2 protein and makes several kinks and turns along the binding groove (Elkayam et al. Cell. 2012. 150:100-110). A binding pocket composed of residues from PAZ and PIWI domains as previously observed interacts with miRNA (Boland et al. EMBO Rep. 2010. 11:522-527; Lingel et al. Nat Struct Mol Biol. 2004. 11:576-577; Schirle et al. Science. 2014. 346:608-613; Wang et al. Nature. 2008. 456:209-213). To determine which domain of AGO2 protein have the key role in miRNA binding affinity, flag tagged AGO2 protein and its domains, PAZ and PIWI, were overexpressed in HEK293T cells in the presence or absence of miR-376b overexpression and they immunoprecipitated with flag beads. […] It can be concluded that each domain of AGO2 protein is essential for the highest binding affinity (FIG. 10).

[1] = Hydrodynamic properties of SPIONs by dynamic light scattering; assay type: physicochemical; settings: medium PBS; for HDR Z-average (hydrodynamic size): dynamic light scattering
Method: Hydrodynamic properties of SPIONs were measured after each conjugation step to monitor colloidal stability (Table 2).

miRNA binding affinity (miR-376b) (miR-376b)	Substance	HDR Z-average (hydrodynamic size) [1] [nm]	PDI [1]	Zeta Potential [1] [mV]
partial role	PAZ: flag tagged AGO2 fragment, aa1-480			
	SPION/AGO2/PEG-MI: SPION/AGO2 reacted with NH2-PEG-Mal (2000 Da) linker	30	0.59	−21
	SPION/AGO2: AGO2 protein covalently attached to SPION/PAA via amide bond (EDC/NHS)	20	0.43	−23
greater affinity	full length AGO2 protein: flag tagged full length Argonaute-2 protein overexpressed in HEK293T cells			
